pKd: −log10 of the molar value.
Target: Chicken CapZ (full length α/β) (chicken) (UniProt P13127)
Test: ITC

Substance: RavB (full length, purified) (natural protein)
- pKd: 7.97

Reference: PMC12865202
